Drawing on patent US20150344570A1 (published 2015), this text covers koff for one molecule.

This assay addresses FcγRIa (human, UniProt P12314 16-292). The assay is described as follows: SPR (Biacore 4000). On the technique in general: Surface plasmon resonance follows binding to a sensor surface in real time, without labels.

FcγRIa, sequence (P12314 16-292): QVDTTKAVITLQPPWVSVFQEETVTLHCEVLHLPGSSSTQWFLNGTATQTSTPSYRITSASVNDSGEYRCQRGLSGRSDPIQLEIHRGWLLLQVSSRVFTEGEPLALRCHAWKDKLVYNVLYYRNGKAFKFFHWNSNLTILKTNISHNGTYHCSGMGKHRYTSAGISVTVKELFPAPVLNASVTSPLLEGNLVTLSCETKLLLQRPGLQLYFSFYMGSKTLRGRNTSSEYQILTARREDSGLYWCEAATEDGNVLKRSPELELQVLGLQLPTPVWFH

B1: H240-Kn120/H240-Hl073/L73-k0 (antibody, human IgG1, kappa)
heavy 1: QDQLVQSGAEVKKPGASVKVSCKASGFNIKDTYIQWVRQAPGQGLEWMGRIDPLRKQTKYREKFEGRVTITADTSTNTAYMELSSLRSEDTAVYYCVRSGREFDYWGQGTLVTVSSASTKGPSVFPLAPSSKSTSGGTAALGCLVKDYFPEPVTVSWNSGALTSGVHTFPAVLQSSGLYSLSSVVTVPSSSLGTQTYICNVNHKPSNTKVDKKVEPKSCDKTHTCPPCPAPEYYWGPMVFLFPPKPKDTLMISRTPEVTCVVVDVSDEDPEVKFNWYVDGVEVHNAKTKPREEQYNATYRVVSVLTVLHQDWLNGKEYKCKVSNKDLPAPIEKTISKAKGQPREPQVCTLPPSRDELTKNQVSLWCLVKGFYPSDIAVEWESNGQPENNYKTTPPVLDSDGSFFLYSKLTVDKSRWQQGNVFSCSVMHEALHNHYTQKSLSLSP
heavy 2: QDQLVQSGAEVKKPGASVKVSCKASGFNIKDTYIQWVRQAPGQGLEWMGRIDPLRKQTKYREKFEGRVTITADTSTNTAYMELSSLRSEDTAVYYCVRSGREFDYWGQGTLVTVSSASTKGPSVFPLAPSSKSTSGGTAALGCLVKDYFPEPVTVSWNSGALTSGVHTFPAVLQSSGLYSLSSVVTVPSSSLGTQTYICNVNHKPSNTKVDKKVEPKSCDKTHTCPPCPAPELLSGPSVFLFPPKPKDTLMISRTPEVTCVVVDVSHEEPEVKFNWYVDGVEVHNAKTKPREEQYNSTYRVVSVLTVLHQDWLNGKEYKCKVSNDALPKPIEETISKAKGQPREPQVYTLPPSRCELTKNQVSLSCAVKGFYPSDIAVEWESNGQPENNYKTTPPVLDSDGSFFLVSKLTVDKSRWQQGNVFSCSVMHEALHNHYTQKSLSLSP
light: DIQMTQSPSSLSASVGDRVTITCRASQDIHKYIAWYQQKPGQAPRLLIQYTSTLQPGVPSRFSGSGSGTDYTFTISSLQPEDIATYYCLQYEQLRTFGGGTKVEIKRTVAAPSVFIFPPSDEQLKSGTASVVCLLNNFYPREAKVQWKVDNALQSGNSQESVTEQDSKDSTYSLSSTLTLSKADYEKHKVYACEVTHQGLSSPVTKSFNRGEC
notes: G236S introduced into H240-Hl068; also called H240-Kn120/H240-HI073/L73-k0
Molecule B1 showed a koff below 5e-05 s⁻¹.

The koff is the first-order rate constant of dissociation.
